According to PMC1931443:

What was measured:
DMRT1 (mouse) = DMRT1 (mouse) (UniProt Q9QZ59); test: competition; settings: 40-fold excess unlabeled SELF; EMSA: 10 mM Tris-HCl pH 7.9, 100 mM KCl, 10% glycerol, 5 mM MgCl2, 1 mM spermidine, 0.075% Triton-X-100, 1 mM DTT, 1 ug BSA, 0.1 ug dI-dC, 75 ng plasmid DNA, 0.
DMRT5 (mouse) = molecular target: T1, DMRT5 (mouse) (UniProt A2A9A2); test: competition; settings: 40-fold excess unlabeled SELF; EMSA: 10 mM Tris-HCl pH 7.9, 100 mM KCl, 10% glycerol, 5 mM MgCl2, 1 mM spermidine, 0.075% Triton-X-100, 1 mM DTT, 1 ug BSA, 0.1 ug dI-dC, 75 ng plasmid DNA, 0.
T1 sequence: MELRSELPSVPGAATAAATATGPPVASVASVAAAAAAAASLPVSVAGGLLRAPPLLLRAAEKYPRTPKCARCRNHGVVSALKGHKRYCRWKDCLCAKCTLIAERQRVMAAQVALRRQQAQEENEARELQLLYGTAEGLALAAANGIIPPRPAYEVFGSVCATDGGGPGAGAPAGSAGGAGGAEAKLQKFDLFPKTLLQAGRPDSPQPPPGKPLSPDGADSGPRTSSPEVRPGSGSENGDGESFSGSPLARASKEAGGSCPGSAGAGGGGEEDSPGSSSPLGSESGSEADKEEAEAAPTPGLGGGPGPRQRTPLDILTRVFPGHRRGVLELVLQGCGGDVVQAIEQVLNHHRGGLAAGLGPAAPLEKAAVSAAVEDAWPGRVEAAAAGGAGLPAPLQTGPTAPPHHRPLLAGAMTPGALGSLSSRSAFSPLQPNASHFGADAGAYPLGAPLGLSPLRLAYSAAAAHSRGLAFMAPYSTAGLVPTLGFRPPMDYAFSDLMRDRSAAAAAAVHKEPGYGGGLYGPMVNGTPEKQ

Chain of DMRT1 (mouse) (Q9QZ59 whole entry): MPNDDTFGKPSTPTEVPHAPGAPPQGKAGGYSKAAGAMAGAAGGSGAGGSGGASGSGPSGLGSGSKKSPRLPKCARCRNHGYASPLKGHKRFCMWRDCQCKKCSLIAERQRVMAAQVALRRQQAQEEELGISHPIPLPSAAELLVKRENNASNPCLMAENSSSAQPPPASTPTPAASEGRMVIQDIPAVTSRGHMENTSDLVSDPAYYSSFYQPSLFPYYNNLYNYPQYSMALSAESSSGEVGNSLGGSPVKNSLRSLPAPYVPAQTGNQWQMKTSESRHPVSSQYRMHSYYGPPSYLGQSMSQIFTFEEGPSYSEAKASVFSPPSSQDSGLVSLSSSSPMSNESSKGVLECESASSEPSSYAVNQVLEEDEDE

## TCGAGATTTGATACATTGTTGC / TCGAGCAACAATGTATCAAATC [DMRT1 consensus (1RE, general gel shift)]
DMRT1 (mouse)
  binding signal (relative to SELF): 1
DMRT5 (mouse)
  binding signal (relative to SELF): 1
